This note sets out measurements from patent publication US20150166643A1 (Alexion, published 2015).

Assay [1] has as its target T1, human factor B (purified, Complement Technology A135) (human, UniProt P00751 26-764).
T1 construct: also called fB; human complement factor B
The assay is described as follows: SPR (Biacore), factor B coupled to the chip, free TA106 Fab 0.19-25 nM flowed; Chi2 1.58. The text has this: (§1) Binding kinetics of TA106 Fab and variant S33A Fab (CLS016) were further characterized using Surface Plasmon Resonance (SPR) technology. In one exemplary experiment, both Fabs were captured on chips of a Biacore 3000 analyzer and samples of human factor B of different concentrations were flowed as the antigen over the surface to model soluble human factor B binding, using protocols recommended by the manufacturer and described previously in the instant disclosure. […] In another exemplary experiment, the affinities of both Fabs were also measured by reversing the orientation of the previous experiment. Specifically, human factor B was directly coupled to one flow cell of a CM5 chip. The second flow cell was used as a blank reference with no coupled ligand. CLS016 or TA106 Fab was then flowed on both flow cells. Concentrations between 0.19 to 25 nM were run with duplicates. The surface was regenerated between each cycle.

Assay [2] concerns the target T1, human factor B (purified, Complement …). Briefly: BLI (Octet), biotinylated factor B on streptavidin biosensor, Fab at 25 nM. As to the method:
(§2) Binding kinetics of TA106 and TA106 S33A Fab (CLS016) to Factor B were analyzed using a FortéBio® Octet® biosensor (FortéBio, Inc.) in a similar protocol as described previously. In one exemplary experiment, Factor B (Complement Technology) was biotinylated at a 1:10 ratio and coupled to a streptavidin biosensor at a concentration of 5 μg/mL for a loading time of 600 seconds. Biosensors were briefly dipped in 1×KB as a wash for 30 seconds. Associations with a titration series of Fab with a concentration range from 100 to 3 nM (diluted in 1×KB) were carried out for 600 seconds. Fabs were dissociated from the biosensor by immersing the biosensor in 1×KB during the 600 second dissociation phase. As depicted in FIGS. 19 and 20, both TA106 Fab and TA106-derivative S33A Fab (CLS016) bound to Factor B at various concentrations, resulting in nearly identical association and dissociation profiles. Kinetic assessments using partial local fit parameters yielded identical values for KD/kₐ/Kd at each concentration tested.

Assay [3] shares this target. The assay is described as follows: BLI (Octet), biotinylated factor B on streptavidin biosensor, Fab at 6.25 nM. As to the method:
as §2
On the technique in general: In BLI a coated tip is dipped into the sample, and binding shifts an interference pattern.

The target is the same in assay [4]. The assay is described as follows: SPR (Biacore), factor B bound directly to the chip, free TA106 Fab flowed; Chi2 0.901. The source says:
(§3) The difference in the two Biacore data sets could be explained as either that the conformation of factor B changes when binding to the surface or that not all commercial factor B is active. This later Biacore experiment (with a fixed concentration of factor B bound to the chip) removed the factor B concentration from the calculation.
(In general: In SPR one partner is held on a chip, and binding of the other changes the refractive index at the surface.)

The target is the same in assay [5]. The assay is described as follows: BLI (Octet), biotinylated factor B on streptavidin biosensor, Fab at 50 nM. As to the method:
as §2

The target is the same in assay [6]. The assay is described as follows: SPR (Biacore), TA106 Fab captured on anti-Fab surface, soluble factor B flowed; Chi2 0.113.
Assay [7] shares this target. Briefly: SPR (Biacore 3000), Fab captured by human Fab binder on CM5 chip, soluble human factor B 3.1-200 nM; Fab captured on chip, soluble factor B. The source says: Binding kinetics of mAbs were further characterized using Biacore's Surface Plasmon Resonance (SPR) technology (GE Healthcare, Piscataway, N.J.). For a detailed description of SPR and its applications in affinity measurement, please see Karlsson and Larsson, Antibody Engineering: Methods and Protocols, Methods in Molecular Biology (2003), 248: 389-415. In one exemplary experiment, TA106 Fab and derivative mAbs were captured on chips of a Biacore 3000 analyzer and samples of human factor B of different concentrations were flowed as the antigen over the surface to model soluble human factor B binding, using protocols recommended by the manufacturer (e.g., in the product brochure #BR-9003-31). All these referenced publications are hereby incorporated by reference in their entirety. […] Fab TA106 (Xoma, Lot#TTA1007, 20 mg/mL) was then flowed over one flow cell, followed by injections of human factor B on both flow cells. Concentrations (factor B) between 3.1-200 nM were run. The surface was regenerated between each cycle. […] The affinities of mAbs, i.e., CLS011, CLS012, and CLS013, were determined using a similar capture approach. In one exemplary experiment, human anti-Fc antibody was amine coupled to two flow cells of a CM5 chip. Each of the TA106-originated mAbs was then flowed over one flow cell, followed by injecting human factor B (3.1-200 nM) on both flow cells. […]

Assay [8] has the same target. Briefly: SPR (Biacore), factor B directly bound to the chip at low coverage, TA106 Fab flowed over.
Source text: as §3

The target is the same in assay [9]. The assay is described as follows: BLI (Octet), biotinylated factor B on streptavidin biosensor, Fab at 12.5 nM. On the procedure: as §2
The target is the same in assay [10]. The assay is described as follows: SPR (Biacore), factor B coupled to the chip, free TA106 Fab 0.19-25 nM flowed; Chi2 1.58 (the text rounds to 1.2 nM).
Source text: as §1

T1 sequence (P00751 26-764): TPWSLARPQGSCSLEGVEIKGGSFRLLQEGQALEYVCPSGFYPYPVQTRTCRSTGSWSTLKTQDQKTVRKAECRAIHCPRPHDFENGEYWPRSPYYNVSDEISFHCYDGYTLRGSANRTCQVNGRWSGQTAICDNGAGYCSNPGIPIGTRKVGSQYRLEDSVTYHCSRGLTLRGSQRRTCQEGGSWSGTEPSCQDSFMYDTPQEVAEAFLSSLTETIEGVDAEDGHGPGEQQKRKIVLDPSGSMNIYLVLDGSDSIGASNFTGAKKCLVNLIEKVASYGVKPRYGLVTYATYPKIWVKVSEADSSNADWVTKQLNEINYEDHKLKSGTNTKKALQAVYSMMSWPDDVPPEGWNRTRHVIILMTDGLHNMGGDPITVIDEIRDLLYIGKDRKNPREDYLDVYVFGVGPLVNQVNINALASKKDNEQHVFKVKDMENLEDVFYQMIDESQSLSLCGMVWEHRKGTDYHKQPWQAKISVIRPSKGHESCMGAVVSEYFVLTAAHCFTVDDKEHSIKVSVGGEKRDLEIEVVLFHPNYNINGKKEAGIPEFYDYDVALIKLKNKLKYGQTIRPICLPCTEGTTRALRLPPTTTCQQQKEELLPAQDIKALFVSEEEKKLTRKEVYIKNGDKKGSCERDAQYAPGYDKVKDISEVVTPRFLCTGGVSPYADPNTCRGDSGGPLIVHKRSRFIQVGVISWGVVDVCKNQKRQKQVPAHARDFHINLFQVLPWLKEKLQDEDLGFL

B1: TA106 Fab (humaneered anti-factor B Fab, expressed in E. coli) (Fab, V domains shown)
VH: QVQLVQSGAEVKKPGASVKVSCKASGYSFTDYYMTWVRQAPGQGLEWMGWINPNSGGTKYAQKFQGRVTMTRDTSISTAYMELSRLRSDDTAVYYCARGYYANSAWFAYWGQGTLVTVSS
VL: DIVMTQSPDSLAVSLGERATINCKSSQSLLNSSTSKNYLAWYQQKPGQPPKLLIYWASTRESGVPDRFSGSGSGTDFTLTISSLQAEDVAVYYCKQVYNLPWTFGQGTKLEIKR
notes: Fab made in E. coli by Xoma, not glycosylated; also called Fab TA106; TA106 wild type Fab
For orientation: koff means a measure of how fast the partners let go of each other. The term kon denotes a measure of how fast the partners come together. Usually Kd stands for the constant that tells how readily two partners part at equilibrium. Take B1: the dissociation rate constant (koff) in [1] came to 0.00333 s⁻¹; in [2] it was 0.00352 s⁻¹; in [3], 0.00294 s⁻¹; in [4], 0.00305 s⁻¹; in [5] it was 0.0039 s⁻¹; in assay [6], 0.0036 s⁻¹. Also, the koff in assay [9] was 0.00324 s⁻¹. For the same molecule, the kon in assay [1] was determined as 2.84e+06 M⁻¹ s⁻¹; in [2], 157000 M⁻¹ s⁻¹; in assay [3], 70600 M⁻¹ s⁻¹; in assay [4], 2.2e+06 M⁻¹ s⁻¹; in assay [5], 172000 M⁻¹ s⁻¹; in assay [6], 118000 M⁻¹ s⁻¹. In addition, the kon in [9] was found to be 109000 M⁻¹ s⁻¹. Besides, the equilibrium dissociation constant (Kd) in assay [2] is 22.4 nM; in [3], 41.6 nM; in assay [5], 22.7 nM; in [7], approximately 24.9 nM; in assay [8], 1.4 nM; in assay [9], 29.8 nM. In [10], the Kd is 1.17 nM.
